B1: STX5 (parent)
chain: ESTIVELGSIFQQLAHMVKEQEET

Variants of: B1
Experiment: protein stability index of a GFP-peptide fusion (GPS, HEK-293T) (PSI 1-6); higher = more stable
Details: c terminus: a fixed tail appended
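Also: lentivirally expressed fusions sorted by FACS into six bins by GFP to DsRed ratio, PSI derived from sequencing read proportions per bin multiplied by bin number.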

| Variant | protein stability index |
| --- | --- |
| ENTIVELGSIFQQLAHMVKEQEET | 1.97 |
| EITIVELGSIFQQLAHMVKEQEET | 1.86 |
| GSTIVELGSIFQQLAHMVKEQEET | 2.69 |
| ISTIVELGSIFQQLAHMVKEQEET | 3.04 |
| VSTIVELGSIFQQLAHMVKEQEET | 1.79 |
| WSTIVELGSIFQQLAHMVKEQEET | 1.61 |
| DSTIVELGSIFQQLAHMVKEQEET | 2.77 |
| QSTIVELGSIFQQLAHMVKEQEET | 1.68 |
| KSTIVELGSIFQQLAHMVKEQEET | 1.87 |
| YSTIVELGSIFQQLAHMVKEQEET | 2.49 |
| PSTIVELGSIFQQLAHMVKEQEET | 2.71 |
| LSTIVELGSIFQQLAHMVKEQEET | 2.6 |
| CSTIVELGSIFQQLAHMVKEQEET | 2.31 |
| ASTIVELGSIFQQLAHMVKEQEET | 2.13 |
| HSTIVELGSIFQQLAHMVKEQEET | 1.27 |
| MSTIVELGSIFQQLAHMVKEQEET | 2.45 |
| RSTIVELGSIFQQLAHMVKEQEET | 2.27 |
| SSTIVELGSIFQQLAHMVKEQEET | 1.9 |
| NSTIVELGSIFQQLAHMVKEQEET | 2.22 |
| TSTIVELGSIFQQLAHMVKEQEET | 2.26 |
| FSTIVELGSIFQQLAHMVKEQEET | 2.08 |
| ESTKVELGSIFQQLAHMVKEQEET | 2.55 |
| ESTDVELGSIFQQLAHMVKEQEET | 2.78 |
| ESTAVELGSIFQQLAHMVKEQEET | 2.27 |

| Variant | protein stability index |
| --- | --- |
| ESTFVELGSIFQQLAHMVKEQEET | 2.29 |
| ESTWVELGSIFQQLAHMVKEQEET | 2.54 |
| ESTNVELGSIFQQLAHMVKEQEET | 3.05 |
| ESTCVELGSIFQQLAHMVKEQEET | 2.83 |
| ESTTVELGSIFQQLAHMVKEQEET | 2.73 |
| ESTVVELGSIFQQLAHMVKEQEET | 3.59 |
| ESTRVELGSIFQQLAHMVKEQEET | 3 |
| ESTHVELGSIFQQLAHMVKEQEET | 3.14 |
| ESTPVELGSIFQQLAHMVKEQEET | 2.93 |
| ESTSVELGSIFQQLAHMVKEQEET | 2.64 |
| ESTQVELGSIFQQLAHMVKEQEET | 3.69 |
| ESTYVELGSIFQQLAHMVKEQEET | 1.91 |
| ESTMVELGSIFQQLAHMVKEQEET | 1.57 |
| ESTGVELGSIFQQLAHMVKEQEET | 2.42 |
| ESTLVELGSIFQQLAHMVKEQEET | 1.81 |
| ESTEVELGSIFQQLAHMVKEQEET | 2.8 |
| ESTIVYLGSIFQQLAHMVKEQEET | 1.81 |
| ESTIVNLGSIFQQLAHMVKEQEET | 3.14 |
| ESTIVMLGSIFQQLAHMVKEQEET | 1.95 |
| ESTIVKLGSIFQQLAHMVKEQEET | 2.54 |
| ESTIVCLGSIFQQLAHMVKEQEET | 2.06 |
| ESTIVFLGSIFQQLAHMVKEQEET | 2.19 |
| ESTIVTLGSIFQQLAHMVKEQEET | 1.91 |
| ESTIVLLGSIFQQLAHMVKEQEET | 2.34 |

| Variant | protein stability index |
| --- | --- |
| ESTIVHLGSIFQQLAHMVKEQEET | 2.33 |
| ESTIVDLGSIFQQLAHMVKEQEET | 1.63 |
| ESTIVRLGSIFQQLAHMVKEQEET | 4.41 |
| ESTIVILGSIFQQLAHMVKEQEET | 3.1 |
| ESTIVGLGSIFQQLAHMVKEQEET | 2.75 |
| ESTIVQLGSIFQQLAHMVKEQEET | 2.33 |
| ESTIVALGSIFQQLAHMVKEQEET | 1.65 |
| ESTIVPLGSIFQQLAHMVKEQEET | 2.75 |
| ESTIVVLGSIFQQLAHMVKEQEET | 1.62 |
| ESTIQELGSIFQQLAHMVKEQEET | 2.07 |
| ESTIFELGSIFQQLAHMVKEQEET | 1.83 |
| ESTISELGSIFQQLAHMVKEQEET | 2.46 |
| ESTIYELGSIFQQLAHMVKEQEET | 2.28 |
| ESTIGELGSIFQQLAHMVKEQEET | 2.79 |
| ESTIMELGSIFQQLAHMVKEQEET | 2.56 |
| ESTIRELGSIFQQLAHMVKEQEET | 2.88 |
| ESTILELGSIFQQLAHMVKEQEET | 2.04 |
| ESTIDELGSIFQQLAHMVKEQEET | 3 |
| ESTIWELGSIFQQLAHMVKEQEET | 2.22 |
| ESTIHELGSIFQQLAHMVKEQEET | 1.71 |
| ESTIAELGSIFQQLAHMVKEQEET | 2.28 |
| ESTIKELGSIFQQLAHMVKEQEET | 3.1 |
| ESTIIELGSIFQQLAHMVKEQEET | 2.55 |
| ESTIEELGSIFQQLAHMVKEQEET | 2.12 |

| Variant | protein stability index |
| --- | --- |
| ESTICELGSIFQQLAHMVKEQEET | 2.58 |
| ESTITELGSIFQQLAHMVKEQEET | 1.99 |
| ESTINELGSIFQQLAHMVKEQEET | 2.04 |
| ESTIPELGSIFQQLAHMVKEQEET | 3.5 |
| ESIIVELGSIFQQLAHMVKEQEET | 2.94 |
| ESYIVELGSIFQQLAHMVKEQEET | 2.05 |
| ESKIVELGSIFQQLAHMVKEQEET | 2.83 |
| ESFIVELGSIFQQLAHMVKEQEET | 1.3 |
| ESAIVELGSIFQQLAHMVKEQEET | 2.96 |
| ESRIVELGSIFQQLAHMVKEQEET | 3.19 |
| ESSIVELGSIFQQLAHMVKEQEET | 2.72 |
| ESEIVELGSIFQQLAHMVKEQEET | 1.43 |
| ESWIVELGSIFQQLAHMVKEQEET | 1.24 |
| ESHIVELGSIFQQLAHMVKEQEET | 2.4 |
| ESLIVELGSIFQQLAHMVKEQEET | 1.85 |
| ESPIVELGSIFQQLAHMVKEQEET | 3.03 |
| ESMIVELGSIFQQLAHMVKEQEET | 1.44 |
| ESDIVELGSIFQQLAHMVKEQEET | 2.04 |
| ESNIVELGSIFQQLAHMVKEQEET | 2.31 |
| ESCIVELGSIFQQLAHMVKEQEET | 2.02 |
| ESQIVELGSIFQQLAHMVKEQEET | 3.88 |
| ESVIVELGSIFQQLAHMVKEQEET | 2.56 |
